Data from publication PMC8359929.

Substrate: N[C@@H](C(=O)O)[C@@H](O)[C@H](O)[C@H](O)COP(=O)(O)O
Experiment: purified protein
Format: biochemical, Salmonella enterica
Details: 0.1 M triethanolamine-HCl pH 8.0, 37 °C, 0.2 mM NADH

B1: D-glucosaminate-6-phosphate ammonia-lyase (DGL), native (Salmonella enterica subsp. enterica serovar Typhimurium str. 14028S) (protein)
chain: MTPNIYQQLGLKKVINACGKMTILGVSSVAPEVMQATARAASAFVEIDALVEKTGELVSRYTGAEDSYITSCASAGIAIAVAAAITHGDRARVALMPDSSGMANEVVMLRGHNVDYGAPVTSAIRLGGGRIVEVGSSNLATRWQLESAINEKTAALLYVKSHHCVQKGMLSIDDFVQVAQANHLPLIVDAAAEEDLRGWVASGADMVIYSGAKAFNAPTSGFITGRKTWIAACKAQHQGIARAMKIGKENMVGLVYALENYHQGQTTVTAAQLQPVAEAISAIHGLYADIEQDEAGRAIWRIRVRVNASELGLNAQDVEAQLRGGEIAIYARKYQLHQGVFSLDPRTVAEGEMALIVARLREIAEHAAD
- Km: 139 ± 26 µM
- kcat: 27.4 ± 1.4 s⁻¹
- kcat/Km: 197000 ± 31000 M⁻¹ s⁻¹
